The values below come from patent US20150011730A1.

As a reminder, the IC50 is the concentration that inhibits the measured activity by half. Low readings indicate higher potency, high ones lower potency.

The target of experiment [1] is CDK4/cyclin D1 (as used in the binding assay) (UniProt P11802).
For experiment [2], the target named is CDK2/cyclin A (as used in the binding assay) (UniProt P24941).

Chain of CDK4/cyclin D1 (as used in the binding assay) (P11802 whole entry, chain 1 of 2): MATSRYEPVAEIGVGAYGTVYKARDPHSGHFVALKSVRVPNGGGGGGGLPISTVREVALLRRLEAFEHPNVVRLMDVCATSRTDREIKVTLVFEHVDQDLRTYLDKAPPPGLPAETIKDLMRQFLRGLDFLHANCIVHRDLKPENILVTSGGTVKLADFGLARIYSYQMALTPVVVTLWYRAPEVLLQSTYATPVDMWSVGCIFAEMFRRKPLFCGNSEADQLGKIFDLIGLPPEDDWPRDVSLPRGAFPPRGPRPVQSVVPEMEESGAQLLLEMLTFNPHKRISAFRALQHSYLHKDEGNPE
Chain of CDK4/cyclin D1 (as used in the binding assay) (P24385 whole entry, chain 2 of 2, further chain): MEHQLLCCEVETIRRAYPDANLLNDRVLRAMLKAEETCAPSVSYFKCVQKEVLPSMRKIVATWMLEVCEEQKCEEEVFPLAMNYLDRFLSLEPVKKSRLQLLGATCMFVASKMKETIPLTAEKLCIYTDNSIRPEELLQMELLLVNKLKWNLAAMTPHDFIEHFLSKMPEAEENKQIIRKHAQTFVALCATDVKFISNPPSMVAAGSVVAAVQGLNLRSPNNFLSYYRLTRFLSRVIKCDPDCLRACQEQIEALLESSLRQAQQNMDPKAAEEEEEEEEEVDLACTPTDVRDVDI

As for R{bLeu}NMeF-NH2 (peptide), the IC50 in experiment [1] was 89.7 µM; in experiment [2] it was 0.405 µM.

As to R{bLeu}NMeF (peptide), the half-inhibitory concentration (IC50) in experiment [1] was 61.2 µM; in experiment [2] it was 0.505 µM.
